{
  "source": "paper PMC4192074",
  "key": {"Dis3L2 wild type [1]": {"target": "T1, Dis3L2 wild type (mouse, UniProt Q8CI75 1-870)", "T1 sequence": "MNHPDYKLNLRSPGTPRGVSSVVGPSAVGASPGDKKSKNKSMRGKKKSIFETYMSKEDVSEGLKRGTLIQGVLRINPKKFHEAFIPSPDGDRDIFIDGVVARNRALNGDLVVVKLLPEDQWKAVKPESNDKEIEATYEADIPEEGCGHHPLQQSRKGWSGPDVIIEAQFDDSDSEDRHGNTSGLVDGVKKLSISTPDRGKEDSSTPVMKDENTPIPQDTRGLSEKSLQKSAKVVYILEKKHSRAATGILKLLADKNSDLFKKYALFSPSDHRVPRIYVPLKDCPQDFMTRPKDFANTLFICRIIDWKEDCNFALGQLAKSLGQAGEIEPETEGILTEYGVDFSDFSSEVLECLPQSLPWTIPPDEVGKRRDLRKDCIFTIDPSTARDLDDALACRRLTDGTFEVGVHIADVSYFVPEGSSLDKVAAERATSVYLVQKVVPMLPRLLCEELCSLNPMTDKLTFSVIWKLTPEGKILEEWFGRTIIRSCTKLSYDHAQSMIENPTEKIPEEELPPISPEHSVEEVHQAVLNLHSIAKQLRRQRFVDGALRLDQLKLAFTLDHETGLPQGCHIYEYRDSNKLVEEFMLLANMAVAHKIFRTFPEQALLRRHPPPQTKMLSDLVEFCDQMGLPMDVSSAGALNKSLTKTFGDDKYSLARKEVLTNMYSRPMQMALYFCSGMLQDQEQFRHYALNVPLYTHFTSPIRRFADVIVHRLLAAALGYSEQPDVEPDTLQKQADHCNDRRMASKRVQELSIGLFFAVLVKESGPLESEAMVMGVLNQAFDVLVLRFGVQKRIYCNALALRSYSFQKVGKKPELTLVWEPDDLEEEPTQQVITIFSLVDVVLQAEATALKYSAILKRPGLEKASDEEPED", "assay": "filter binding"}, "Dis3L2 wild type [2]": {"target": "T1, Dis3L2 wild type", "assay": "filter binding", "remark": "listed apart in the source"}, "Dis3L2 wild type [3]": {"target": "T1, Dis3L2 wild type", "assay": "filter binding", "remark": "listed apart in the source"}, "[4]": {"target": "T2, Dis3L2 truncated D389N (crystal construct) (mouse, UniProt Q8CI75 37-857, D389N;del148-169;del194-221)", "T2 sequence": "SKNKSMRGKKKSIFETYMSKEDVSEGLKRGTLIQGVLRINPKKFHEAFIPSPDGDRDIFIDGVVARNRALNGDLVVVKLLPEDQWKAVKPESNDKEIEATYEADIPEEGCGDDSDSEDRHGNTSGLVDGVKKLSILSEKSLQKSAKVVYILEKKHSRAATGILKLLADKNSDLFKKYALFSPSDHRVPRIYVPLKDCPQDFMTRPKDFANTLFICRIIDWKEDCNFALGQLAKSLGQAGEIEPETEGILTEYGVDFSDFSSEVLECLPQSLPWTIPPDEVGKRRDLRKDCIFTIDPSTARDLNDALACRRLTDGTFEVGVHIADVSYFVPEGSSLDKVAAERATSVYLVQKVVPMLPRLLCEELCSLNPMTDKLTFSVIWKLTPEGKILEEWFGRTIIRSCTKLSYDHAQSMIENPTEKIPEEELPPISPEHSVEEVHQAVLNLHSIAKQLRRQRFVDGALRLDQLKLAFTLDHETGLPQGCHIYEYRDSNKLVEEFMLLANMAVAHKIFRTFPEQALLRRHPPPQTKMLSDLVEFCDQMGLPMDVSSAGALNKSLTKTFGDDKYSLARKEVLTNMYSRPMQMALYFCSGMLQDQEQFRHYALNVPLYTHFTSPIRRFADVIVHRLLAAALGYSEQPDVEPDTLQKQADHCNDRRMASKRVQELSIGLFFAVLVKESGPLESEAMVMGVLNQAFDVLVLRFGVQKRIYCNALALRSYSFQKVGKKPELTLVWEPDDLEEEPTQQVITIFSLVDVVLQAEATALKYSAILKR", "assay": "X-ray crystallography"}, "Dis3L2 wild type [5]": {"target": "T1, Dis3L2 wild type", "assay": "filter binding", "remark": "listed apart in the source"}},
  "note": "Like-named read-outs stand apart in the source and are kept apart here.",
  "data": [
    {"binder": "pre-let-7 (pre-let7a1) (structured_RNA) RNA: UGAGGUAGUAGGUUGUAUAGUUUUAGGGUCACACCCACCACUGGGAGAUAACUAUACAAUCUACUGUCUUUC", "values": [
      {"measurement": "binding signal", "setting": "Dis3L2 wild type [1]", "result": "10 fold weaker than pre-let-7-U15"}
    ]},
    {"binder": "CCCCCCCCCCCCCCC (ssRNA)", "note": "[C15]", "values": [
      {"measurement": "binding signal", "setting": "Dis3L2 wild type [2]", "result": "> 200", "unit": "fold weaker than U15"}
    ]},
    {"binder": "UUUUUUUUUUUUUUU (ssDNA, 2'-deoxyuridine at all positions)", "note": "[deoxyU15]", "values": [
      {"measurement": "binding result", "setting": "Dis3L2 wild type [3]", "result": "binds"}
    ]},
    {"binder": "AAAAAAAAAAAAAAA (ssRNA)", "note": "[A15]", "values": [
      {"measurement": "binding signal", "setting": "Dis3L2 wild type [2]", "result": "> 200", "unit": "fold weaker than U15"}
    ]},
    {"binder": "UUUUUUUUUUUUU (ssRNA)", "note": "[U13]", "values": [
      {"measurement": "binding result", "setting": "[4]", "result": "binds"}
    ]},
    {"binder": "UUUUUUUUUUUUUUU (ssRNA)", "note": "[U15]", "values": [
      {"measurement": "binding result", "setting": "Dis3L2 wild type [5]", "result": "binds"}
    ]}
  ]
}
